The source of these data is paper PMC11092324 (Journal of Virology, 2024).

Conditions in all cases: both partners purified
The target in assay [1] is T1, GI.9 Vancouver virus-like particles (VP1 protein of the norovirus GI.9 Vancouver strain) (Norovirus Hu/GI.9/Vancouver730/2004/CAN, UniProt F2XMU3, strain).
T1 construct: also called Vancouver VLPs; GI.9 Vancouver VP1
Kind of assay: ELISA; sandwich ELISA: CV-1A1 Fv-clasp or scFv (0.7 µM in 50 mM carbonate buffer pH 9.6) coated on high-binding microplates, VLPs added in twofold serial dilutions, 37°C 2 h, detected with rabbit anti-VLP antisera; data fit to the Michaelis-Menten equation, Km taken as Kd (affinity or avidity); concentration counted as VP1.

Assay [2] addresses T1, GI.9 Vancouver virus-like particles …. The assay is described as follows: ELISA; sandwich ELISA: Strep-tagged CV-2F5 scFv (0.7 µM in PBS) held on Strep-Tactin-coated wells, VLPs added in twofold serial dilutions, 37°C 2 h, detected with rabbit anti-VLP antisera; data fit to the Michaelis-Menten equation, Km taken as Kd (affinity or avidity); concentration counted as VP1.
For assay [3], the target named is T2, P domain of the VP1 protein from the GI.4 Chiba strain (P dimer) (norovirus GI.4 Chiba strain).
T2 construct: also called Chiba P domain protein; Chiba P dimers; source: E. coli cell-free protein synthesis system, purified (HisTrap, SUMO protease, HiTrapQ)
T2 chain: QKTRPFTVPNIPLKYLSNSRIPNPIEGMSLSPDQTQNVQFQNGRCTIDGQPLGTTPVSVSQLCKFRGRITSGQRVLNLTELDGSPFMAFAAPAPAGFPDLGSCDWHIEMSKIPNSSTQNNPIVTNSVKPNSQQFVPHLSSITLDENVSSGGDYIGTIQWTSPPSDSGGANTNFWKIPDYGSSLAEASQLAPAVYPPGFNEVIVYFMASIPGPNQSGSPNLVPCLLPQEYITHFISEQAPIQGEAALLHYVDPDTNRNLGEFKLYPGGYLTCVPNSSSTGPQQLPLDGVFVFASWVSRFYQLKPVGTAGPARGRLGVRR
The assay is described as follows: crystal structure; Chiba P domain mixed with CV-2F5 scFv in a molar ratio of 1:1.2, complex isolated by size-exclusion chromatography, crystallized by sitting drop at 25°C in 35% Tacsimate pH 7.0.

B1: CV-1A1 Fv-clasp (other)
VH: EVQLVESGAEVKKPGASVKVSCKASGYTFTSLYMHWVRQAPGQGLEWMGMINPSGGGTWNAQKFQGRVTMTRDTSTSTVYMELRSLRSDDTAMYYCARDSDQYSQGLGYWGQGTLVTVCS
VL: QSALTQPASVSGSPGQSITISCTGTSSDVGGYNYVSWYQQHPGKAPKLMIYDVSKRPSGVSNRFSGSKSGNTASLTISGLQAKDEADYYCSSYTSSSTWVFGGGTKLTVL
notes: also called CV-1A1 Fv-clasp fragments; Fv-clasp version of CV-1A1; source: E. coli cell-free protein synthesis system (with DsbC and Skp), purified (HisTrap, TEV protease, HiTrap Q)
B1: the binding result in assay [1] was “no binding”.

B2: Strep-tagged CV-2F5 scFv (scFv, V domains shown)
VH: EVQLVESGGGLVKPGGSLRLSCAASGFTFSSYNMNWVRQAPGKGLEWVSSISTSSRYIYYADSVKGRFTISRDNAKNSLYLQMNSLRAEDTAVYYCAREEGSVDYGMDVWGQGTTVTVSS
VL: not shown
notes: also called CV-2F5-Strep; source: E. coli harboring pETSUMO-CV-2F5-Strep, purified (TALON resin, SUMO protease on the resin); not shown: His tag, N-terminal, cleaved; SUMO, N-terminal, cleaved; Strep-tag, C-terminal, kept
In assay [2], B2 displayed a Kd of 14.4 nM.

B3: CV-2F5 scFv (N11-TEV construct, tag removed) (scFv, V domains shown)
VH: B2 VH
VL: not shown
notes: also called CV-2F5 antibody fragment; CV-2F5 scFv antibodies; source: E. coli cell-free protein synthesis system, purified (HisTrap, TEV protease, HiTrap SP)
B3: in assay [3], the “stoichiometry N” value was found to be 1.
